{
  "source": "the nanobody polyreactivity screen of Harvey et al. (2022)",
  "data": [
    {"experiment": "yeast display, Sf9 membrane polyspecificity reagent, FACS + sequencing; frameworks hold sequencing errors", "procedure,_shortened": "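Genes from sorted yeast were amplified by colony PCR, read by MiSeq 2 × 250 sequencing and filtered on CDR length. These cells carried a synthetic nanobody library in Saccharomyces cerevisiae BJ5465 and were sorted by FACS into low and high (top ~1%) gates on anti-HA and streptavidin fluorescence. Polyreactivity is labelled according to the gate of origin.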", "values": [
      {"sequence": "QGKLVESGGGLVQAGGSLRLSCAASGLTFGSNTMGGYRQAPGKERELVAAITSNGGSTYYADSVKGRFTISRDNAKNTVYVQMNSLKPEDTAVYYCAARSYDGYYRYYYWGQGTQVTVSS", "polyreactivity (PSR sort gate)": "low polyreactivity"},
      {"sequence": "QVQLVESGGGLVQAGGSLRLSCAASGIIFLFYAMGWYSQAPGKERELVGSITWSGGSTYYADSVKGRFTISRDTAKNTVYLQMNRLKPEDTAVYYCAASVKIISYLGQSEFLGGELDYWGQGTQVTVSS", "polyreactivity (PSR sort gate)": "low polyreactivity"},
      {"sequence": "QVQLVESGGGVVQAGGSLRLSCAASGSTFGRYAMGWYRQAPGKERELVAAISWSGGSTYYADSVKGRFTISRDNAKNTVYLQMNSLKPEDTAVYYCNKYWRGSSSRDDYWGQGTQVTLSS", "polyreactivity (PSR sort gate)": "high polyreactivity"},
      {"sequence": "QVQLVESGGGLDQAGGSLRLSCAAAGFIFHLNAMGWYRQAPGKERELLASIRSSGDSTHYADSEKGRFTISRDNAKITVYLQMNSLKPEDTAVFYCNADFYPAGTLTYDYWGQGTQVTVSS", "polyreactivity (PSR sort gate)": "low polyreactivity"},
      {"sequence": "QVQLVESGGGLVQAGGSLRLICAASGSIFNGYVMGWYRQAPGKERELVASINRGGTTNYADSVKGRFTISRDNAKNTVYLLMNSLKPEETAVYYCAVDDDANSLGGYYVLFDYWGQGTQVTVSS", "polyreactivity (PSR sort gate)": "low polyreactivity"},
      {"sequence": "QVQLVESGGGLVQAGGSLRLSCAASGFIFEGNAMGWYRPAPGKERELVAAISWSGGRTFYADSVKGRFTISRDNAKNTVYLQMNSLKPEDTAVYYCNALPGRRRWQVDYWGQGTQVTVSS", "polyreactivity (PSR sort gate)": "high polyreactivity"},
      {"sequence": "QVQLVESGGGLVQAGGSLRLSCAASGLIFTYYAMGWYRQAPGKERELVAAIRVNGGSTYYADSVKGRFTISRDNAKNTVYFQMNSLKPEDTAVFYCAADYYRLRAASYLIRLNYWGQGTQVTVSS", "polyreactivity (PSR sort gate)": "high polyreactivity"},
      {"sequence": "QVQLVESGGGLVQAGGSLRLSCAASGRTFSFYAMGLYRQAPGKERELVAAIRSDGGTTYYADSVKGRFTISRVNGKNTVYLQMNSLKPEDTAVYYCNTQSFYFVSFSSSRYLRYYWGQGTQVTVSS", "polyreactivity (PSR sort gate)": "low polyreactivity"},
      {"sequence": "QVQLVESGGGLVQAGGSLRLSCAASGRIFKWYAMGWSRQAPGKERELVAAITSGGSTYYADSVKGRFTISRDNAKNTVYVQMNSLKPEDTAVYYCNRYGVHRRDDYWGQGTQVTVSS", "polyreactivity (PSR sort gate)": "high polyreactivity"},
      {"sequence": "QVQLVESGGGLVQAGGSLRLSCAPSGRTLRVNTMGWYRQAPGKERELVAAISSGGSRTNYADSVKGRFTISRDNAKNTVYLQMNSLKPEDTAVYYCNKYNRFVYSPPSVYWGQGTQVTVSS", "polyreactivity (PSR sort gate)": "high polyreactivity"},
      {"sequence": "QVQLVESGGGLVQAGGSLRLSCAASGFIFLDYAMGWYRQAPGKERELVAAISSRGARTYYADSVKGRFTISRDNAKNTVYVQMNSLKPEDTAVYYCAARGPLDRYGYWGQGTQVTVSS", "polyreactivity (PSR sort gate)": "high polyreactivity"},
      {"sequence": "QVQLVESGGGLVQAGGSLRLSCAASGFILDYNAMGWYRQAPGKERELVAAITSGGSTNYADSVKGRFTISRDNAKNTVYLQMNSLKPEDTAVYYCNVRSVSPVHDDGSWGQGTQVTVSS", "polyreactivity (PSR sort gate)": "low polyreactivity"},
      {"sequence": "QVQLVESGGGLVQAGGSLRLSCAASGFTFYYYAMGWYRQAPGKERELVASISSRGGSTYYADSVKGRFTISRDNAKNTVYLQMNSLKPEDTAVYYCAARTRRYKFDYWGQGTQVTVSS", "polyreactivity (PSR sort gate)": "high polyreactivity"},
      {"sequence": "QVQRVESGGGLVQAGGSLRLSCAASGSTFDRNAMGWYRQAPGKERELVAAIDYSGGSTYYADSVKGRFTISRDNAKNTVYLQMNSLKPEDTAVYYCAARVDGPDYSDGNYWGQGSQVTVSS", "polyreactivity (PSR sort gate)": "low polyreactivity"},
      {"sequence": "QVQLVESGGGLVKAGGSLRLSCAASGLTFTRYTMGWYRQAPGKERELVAAITSSGGSTYYADSVKGRFTISRDNAKNTVYLQRNSVKPEDTAVYYCAAPYPGTRGDGYWGLGTQVTVSS", "polyreactivity (PSR sort gate)": "high polyreactivity"},
      {"sequence": "QVQLVESGGGLVQAGGSLRLICAASGSTFYPYDMGWYRQSPGKEWELVATISSGVSTNYADSVKGRFTISRDNAKNTVYLQMNSLKPEDTAVYYCAVDYFIGDDDYWGQGTLVTVSS", "polyreactivity (PSR sort gate)": "low polyreactivity"}
    ]}
  ]
}
